Patent US8796183B2, “Template fixed beta-hairpin loop mimetics and their use in phage display” (Polyphor Ltd., priority 2003, dated 2014)
Positions of bridges follow the written chain, without caps; N, C: chain ends. No end group written: not given here.

Test: Circular dichroism
Type: physicochemical
Settings: linear precursor of the compound (before disulfide bridge formation), 10^−4 M in water as TFA salt, room temperature (FIG. 7)
Description: Circular dichroism measurements are sensitive to the secondary structure of both peptides and proteins and have been extensively used to examine the conformation of both (M. Jourdan, S. R. Griffiths-Jones, M. S. Searle, Eur. J. Biochem. 2000, 267, 3539-3548; J. T. Pelto, L. R. Mc. Lean, Analytical Biochemistry, 2000, 277, 167-176).
Circular Dichroism spectra were obtained on a Jasco J-715 spectropolarimeter, equipped with a spectra manager for windows 95/NT. Version 1.52.01 [Build2]. All measurements were performed at room temperature in quartz cells of 0.1 cm path length in water. Spectra were recorded with a 1 nm bandwidth, five scans were collected to improve the signal-to-noise ratio and the solvent baseline was recorded and subtracted from the spectra of the samples. All CD spectra were smoothed (with the same value), and are reported as molecular ellipticity units (Mol. Ellip.) of peptide residue.
Measurement parameters: Band width: 1.0 nm, response: 1 s, sensitivity: standard, measurement range: 240-190 nm, data pitch: 0.5 nm, scanning speed: 50 nm/min. Concentration of the linear deprotected, purified peptide solutions: 10^−4 M in water as TFA salts. The pH and purity of the linear deprotected, purified peptides as precursors of the following examples were: Example 3: pH 6.38, purity 91%; Example 4: pH 6.77, purity 89%; Example 5: pH 6.01, purity 98%; Example 9: pH 6.00, purity 94%.

Substance | CD-spectrum: secondary structure content
Example 3: Ac-NH-Cys-Thr-Lys-Trp-Phe-Ser-Asn-His-Tyr-Gln-Thr-Cys-H, cysteines linked by a disulfide bridge; reference not having a template (Ac-CTKWFSNHYQTC; disulfide 1-12 (inferred); also: C-terminus written as -H) | mixture of a coil structure and a β-sheet structure
Example 4: Ac-NH-Glu-Thr-Cys-Thr-Lys-Trp-Phe-Ser-Asn-His-Tyr-Gln-Thr-Cys-Thr-Lys-H, cysteines linked by a disulfide bridge (Ac-ETCTKWFSNHYQTCTK; disulfide 3-14 (inferred); also: C-terminus written as -H) | high content of a β-sheet structure
Example 5: Ac-NH-Cys-Thr-Lys-Trp-Phe-Leu-Ala-His-Tyr-Ala-Thr-Cys-H, cysteines linked by a disulfide bridge; reference not having a template (Ac-CTKWFLAHYATC; disulfide 1-12 (inferred); also: C-terminus written as -H) | high content of coil- and α-helix structure and traces of a β-sheet structure
Example 9: Ac-NH-Glu-Thr-Cys-Thr-Lys-Trp-Phe-Leu-Ala-His-Tyr-Ala-Thr-Cys-Thr-Lys-H, cysteines linked by a disulfide bridge (Ac-ETCTKWFLAHYATCTK; disulfide 3-14 (inferred); also: C-terminus written as -H) | high content of β-sheet structure and a β-turn structure
